Measurements published in US9642898B2, “Use of serine protease inhibitors in the treatment of neutropenia” (Med Discovery S.A., priority 2009, dated 2017).

Assays:
neutrophils [1] = assay: Annexin-V staining / FACS analysis of neutrophil apoptosis in vitro; format: cell-based, human
Procedure: (§1) To assess viability of neutrophils in-vitro, peripheral blood from healthy donors was erythrocyte-lyzed and neutrophils or peripheral blood mononuclear cells (PBMCs) were isolated. Cultures in RPMI10%FCS were performed in 96 well microtiter plates (5×10^5cells/well) unless otherwise stated. The percentage of apoptotic neutrophils or PBMCs was assessed based on binding of fluorescent Annexin V-protein binding or measuring of CD11b or CD16 surface expression by FACS (fluorescent activated cell sorter) analysis.
(§2) Cells were incubated for 24 or 48 hours with MDPK67b at concentrations ranging from 6 μM to 60 μM, as indicated, or PBS as control. Apoptosis was assessed by Annexin V staining and FACS analysis. Indicated leukocyte populations were gated based on their appearance in a forward scatter/sideward scatter FACS dot plot (neutrophils) or by positive staining for CD3 (T cells).
Neutrophils were incubated for 18 hours with MDPK67b or MDOKG9 concentrations ranging from 60 μM (dilution 1) to […] as indicated. Apoptosis was assessed as outlined above.
Neutrophils were cultured with the indicated concentrations of MDPK67b. PBS without MDPK67b served as a control. Neutrophils were plated (100 μl/well) either at 5×10^6/ml (high density) or 3×10^5/ml (low density) and neutrophil apoptosis was assessed by AnnexinV staining and FACS analysis. Culturing of 5×10^6/ml neutrophils in serum free medium (X-Vivo 15) instead of RPMI10% FCS was assessed in parallel.
(§3) Neutrophils were cultured with the indicated concentrations of MDPK67b in presence or absence of the Src tyrosine kinase inhibitor PP2 (final concentration 10 μM). Apoptosis and relative frequencies of CD11b and CD16 high expressing neutrophils were measured by FACS analysis.
Neutrophils were cultured with the indicated concentrations of G-CSF and neutrophil Apoptosis (FIG. 6A) and down-regulation of CD 16 expression (FIG. 6B) were analyzed by FACS. FIG. 6C: Neutrophils were cultured with MDPK67b (0.6 μM) and titrated amounts of G-CSF (concentrations as indicated). Neutrophils cultured in medium and PBS (without MDPK67b) served as a control.
Cells were incubated during 18 hours with MDPK67b (6 μM) plus Etoposid (125 μg/ml), Etoposid alone or PBS. Apoptosis was assessed by Annexin V staining and FACS analysis. Relevant leukocyte populations were gated based on their appearance in a forward scatter or sideward scatter FACS dot plot.
Cells were incubated for 18 hours with MDPK67b (0.06 μM) alone or MDPK67b (0.06 μM) plus increasing concentrations of Etopsid (in μg/ml) as indicated or PBS. Apoptosis was assessed by Annexin V staining and FACS analysis was performed as mentioned above.

neutrophils [2] = assay: CD16 / CD11b surface expression of cultured neutrophils by FACS; format: cell-based, human
Procedure: as §1
Neutrophils were cultured with the indicated concentrations of MDPK67b and percentage of neutrophils expressing high levels of CD16 or CD11b was assessed by FACS. Representative FACS plots are shown.
as §3

T cells = assay: Annexin-V staining / FACS analysis of T cells (CD3 positive); format: cell-based, human; conditions: 24 or 48 hours
Procedure: as §1, §2

monocytes or lymphocytes = assay: Annexin-V staining / FACS analysis of monocytes or lymphocytes (PBMCs); format: cell-based, human
Procedure: as §1, §2

neutrophils [3] = assay: Annexin-V staining / FACS analysis of neutrophil apoptosis in vitro; format: cell-based, human; conditions: doses ranging from 60 μM down to 0.6 μM; 18, 24 or 48 hours; PBS control
hK2 = hK2 (Homo sapiens, UniProt P20151); assay: Inhibition of kallikrein hK2 by chimeric serpin; format: biochemical
hK2, sequence (P20151 25-261): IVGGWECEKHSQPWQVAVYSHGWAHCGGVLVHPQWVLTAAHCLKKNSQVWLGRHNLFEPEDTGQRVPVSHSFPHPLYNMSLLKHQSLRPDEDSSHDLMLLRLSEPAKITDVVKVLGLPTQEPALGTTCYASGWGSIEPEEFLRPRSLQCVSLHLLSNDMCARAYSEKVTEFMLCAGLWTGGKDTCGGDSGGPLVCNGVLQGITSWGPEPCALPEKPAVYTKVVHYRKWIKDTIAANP
Excerpt: These chimeric inhibitor proteins have been obtained by modifying the RSL of α1-antichymotrypsin (rACT), which is known to inhibit a large panel of human enzymes such as chymotrypsin, mast cell chymase , cathepsin G , prostatic kallikreins hK2 and PSA (hK3), in order to change the specificity of this serpin. Peptide sequences, selected as substrates for the enzyme hK2 by phage display technology as explained in International Patent Application PCT/IB2004/001040, have been used to replace the scissile bond and neighbor amino acid residues of the RSL. Recombinant inhibitors were produced in bacteria and purified by affinity chromatography.

hK3 = hK3 (Homo sapiens, UniProt P07288); assay: Inhibition of kallikrein hK3 by chimeric serpin; format: biochemical
hK3, sequence (P07288 25-261): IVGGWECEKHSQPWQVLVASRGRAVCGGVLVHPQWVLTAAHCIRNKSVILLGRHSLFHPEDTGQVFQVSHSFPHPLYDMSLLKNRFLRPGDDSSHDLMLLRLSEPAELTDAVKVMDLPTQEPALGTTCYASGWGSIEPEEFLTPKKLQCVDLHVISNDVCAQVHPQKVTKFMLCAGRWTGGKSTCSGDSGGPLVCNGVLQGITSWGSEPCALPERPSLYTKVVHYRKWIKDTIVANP

[4] = neutrophils cultured with MDPK67b plus kinase inhibitor (PP2 final concentration 10 μM)

For `COc1cc([C@@H]2c3cc4c(cc3[C@@H](O[C@@H]3O[C@@H]5CO[C@@H](C)O[C@H]5[C@H](O)[C@H]3O)[C@H]3COC(=O)[C@H]23)OCO4)cc(OC)c1O` [Etoposid, reference compound], the “block of the apoptosis reducing effect of MDPK67b” value (neutrophils [1]; Etoposid up to 125 μg/ml, 18 hours) was “only partially block”.

`CC(C)(C)n1nc(-c2ccc(Cl)cc2)c2c(N)ncnc21` [PP2, reference compound] was tested, and the “reversal of the decreased apoptosis in the presence of MDPK67b by kinase inhibitor” value (neutrophils [1]; [4]) was “can be reversed” and the “reversal of the increased frequency of CD11b high expressing neutrophils in the presence of MDPK67b by kinase inhibitor” value (neutrophils [2]; [4]) was “can be reversed”.

B1: MDPK67b: chimeric inhibitor protein specific for hK2, modified RSL of α1-antichymotrypsin; amino acid sequence SEQ ID NO 16 (protein)
chain: MHPNSPLDEENLTQENQDRGTHVDLGLASANVDFAFSLYKQLVLKAPDKNVIFSPLSISTALAFLSLGAHNTTLTEILKGLKFNLTETSEAEIHQSFQHLLRTLNQSSDELQLSMGNAMFVKEQLSLLDRFTEDAKRLYGSEAFATDFQDSAAAKKLINDYVKNGTRGKITDLIKDLDSQTMMVLVNYIFFKAKWEMPFDPQDTHQSRFYLSKKKWVMVPMMSLHHLTIPYFRDEELSCTVVELKYTGNASALFILPDQDKMEEVEAMLLPETLKRWRDSLEFREIGELYLPKFSISRDYNLNDILLQLGIEEAFTSKADLSGITGARNLAVSQVVHKAVLDVFEEGTEASAATAVKIKLRTTLVETRTIVRFNRPFLMIIVPTDTQNIFFMSKVTNPKQA
With B1 the “protection of neutrophils from apoptosis compared to G-CSF” value (neutrophils [1]) was “Superior Effect”, the “apoptosis of neutrophils under various culture conditions” value (neutrophils [1]; 5×10^6/ml (high density) or 3×10^5/ml (low density), RPMI10% FCS or serum free medium (X-Vivo 15)) was “inhibits apoptosis of neutrophils in vitro independently of cell density and presence or absence of serum” and the “cytostatic drug-induced apoptosis of neutrophils” value (neutrophils [1]; 18 hours, MDPK67b (6 μM or 0.06 μM) plus Etoposid) was “Reduces Cytostatic Drug-induced Apoptosis of Neutrophils”. For the same molecule, the “effect of MDPK67b on neutrophil apoptosis in presence of G-CSF” value (neutrophils [1]; MDPK67b (0.6 μM) and titrated amounts of G-CSF) was “not affected by G-CSF”, the “T-cell survival (Annexin V staining)” value (T cells) was “No Significant Effect on T-cell Survival” and the “apoptosis of monocytes or lymphocytes” value (monocytes or lymphocytes) was “did not inhibit apoptosis of monocytes or lymphocytes”. The “frequency of neutrophils that express CD16 and CD11b at high levels” value (neutrophils [2]; indicated concentrations of MDPK67b) was “increases dose-dependently” and the “apoptosis of neutrophils (Annexin V staining)” value (neutrophils [3]) was “inhibit apoptosis of neutrophils”.

B2: G-CSF (protein, UniProt P09919 31-207, looked up)
Granulocyte …: TPLGPASSLPQSFLLKCLEQVRKIQGDGAALQEKLVSECATYKLCHPEELVLLGHSLGIPWAPLSSCPSQALQLAGCLSQLHSGLFLYQGLLQALEGISPELGPTLDTLQLDVADFATTIWQQMEELGMAPALQPTQGAMPAFASAFQRRAGGVLVASHLQSFLEVSYRVLRHLAQP
notes: present agent used for the treatment of neutropenia
B2 was tested, and the “effect on neutrophil apoptosis, alone” value (neutrophils [1]; G-CSF alone, indicated concentrations) was “only a mild protecting effect”.

B3: MDCI: chimeric inhibitor: P3-P3′ of rACTWT RSL replaced by RSL of Protein C inhibitor; SEQ ID No 14 (protein)
chain: MRGSHHHHHHSRHPNSPLDEENLTQENQDRGTHVDLGLASANVDFAFSLYKQLVLKAPDKNVIFSPLSISTALAFLSLGAHNTTLTEILKGLKFNLTETSEAEIHQSFQHLLRTLNQSSDELQLSMGNAMFVKEQLSLLDRFTEDAKRLYGSEAFATDFQDSAAAKKLINDYVKNGTRGKITDLIKDLDSQTMMVLVNYIFFKAKWEMPFDPQDTHQSRFYLSKKKWVMVPMMSLHHLTIPYFRDEELSCTVVELKYTGNASALFILPDQDKMEEVEAMLLPETLKRWRDSLEFREIGELYLPKFSISRDYNLNDILLQLGIEEAFTSKADLSGITGARNLAVSQVVHKAVLDVFEEGTEASAATAVKITFRSALVETRTIVRFNRPFLMIIVPTDTQNIFFMSKVTNPKQA
In the case of B3, the “inhibition of kallikrein hK2” value (hK2) is reported as “able to inhibit” and the “inhibition of kallikrein hK3” value (hK3) is reported as “able to inhibit”.
